Experimental data published in US20050239140A1 (Janssen / Centocor, published 2005).

B1: PHD126 Fab (Fab, V domains shown)
VH: QVQLVQSGAEVKKPGESLKISCKGSYSFSNYWIGWVRQMPGKGLEWMGFIDPDDSDTNYSPSFQGQVTISADKSISTAYLQWSSLKASDTAMYYCARALYMQGGSFDSWGQGTLVTVSS
VL: DIELTQPPSVSVAPGQTARISCSGDNLGSYYVSWYQQKPGQAPVLVIYRDTDRPSGIPERFSGSNSGNTATLTISGTQAEDEADYYCQSYDYGVSNQVFGGGTKLTVLG
B2: PHD104 Fab (Fab, V domains shown)
VH: QVQLVQSGAEVKKPGESLKISCKGSYSFTSNWIGWVRQMPGKGLEWMGWIYPSDSMTRYSPSFQGQVTISADKSISTAYLQWSSLKASDTAMYYCARYLFGLFDNWGQGTLVTVSS
VL: DIELTQPPSVSVAPGQTARISCSGDNLGSYYVSWYQQKPGQAPVLVIYNDNNRPSGIPERFSGSNSGNTATLTISGTQAEDEADYYCATYDSSTDVFGGGTKLTVLG
B3: PHD127 Fab (Fab, V domains shown)
VH: QVQLVQSGAEVKKPGESLKISCKGSYSFTNSWISWVRQMPGKGLEWMGIIDPDDSYTSYSPSFQGQVTISADKSISTAYLQWSSLKASDTAMYYCARGAGYGRMFGDVWGQGTLVTVSS
VL: DIELTQPPSVSVAPGQTARISCSGDNLGSYYASWYQQKPGQAPVLVIYQDDNRPSGIPERFSGSNSGNTATLTISGTQAEDEADYYCGAYTYSTSWVFGGGTKLTVLG
notes: HuCAL Fab; The assignment of 8 (VH) and 9 (VL) to PHD127 follows the order of listing
B4: PHD103 Fab (Fab, V domains shown)
VH: QVQLVQSGAEVKKPGESLKISCKGSGYSFSNSWIAWVRQMPGKGLEWMGGIIGPGHSYTKYSPSFQGQVTISADKSISTAYLQWSSLKASDTAMYYCARINMGYFDYWGQGTLVTVSS
VL: DIELTQPPSVSVAPGQTARISCSGDSLGLKKFVSWYQQKPGQAPVLVIYDDSNRPSGIPERFSGSNSGNTATLTISGTQAEDEADYYCGTYDQTIGHDVVFGGGTKLTVLG

Columns and labels:
[1] = molecular target: T1, murine Tissue Factor in murine brain extracts (murine, UniProt P20352 29-294); assay: cell-based or functional assay
T1 sequence (looked up): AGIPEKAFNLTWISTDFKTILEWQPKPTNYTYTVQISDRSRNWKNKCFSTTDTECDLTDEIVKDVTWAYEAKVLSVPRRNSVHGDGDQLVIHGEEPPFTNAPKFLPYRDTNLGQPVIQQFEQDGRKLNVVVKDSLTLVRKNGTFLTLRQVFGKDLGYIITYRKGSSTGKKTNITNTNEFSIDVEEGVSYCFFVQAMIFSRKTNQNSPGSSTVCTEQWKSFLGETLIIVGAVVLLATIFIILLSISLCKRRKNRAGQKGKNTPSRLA

[2] = molecular target: T2, murine Tissue Factor on B6F10 melanoma cells (murine, UniProt P20352 29-294); assay: FACS on B6F10 melanoma cells that express mTF
T2 construct: whole, on cells; also called cell-associated mTF
T2 sequence (looked up): T1 sequence (looked up)

EC50 Conc. (ug/ml), inhibition of fibrin clot formation in human plasma with murine brain extracts as source of mTF [1]	EC50 [2]	Binder
0.23 µg/mL	–	B1
23.8 µg/mL	–	B2
0.82 µg/mL	4.35 nM	B3
63.3 µg/mL	–	B4
